Reference: the DeepSol protein solubility set

test: soluble on expression in E. coli; label from the status in PepcDB or PDB records

Soluble on expression in E. coli, not soluble:
MGSDKIHHHHHHMSRFAACFEDLPDPRGRNARHPLTSILFIAVAAIVCGAESCTDMADFGVAKKKWLKTIVPLPYGIPSHDTFSTVFRHLDPDAFDAAFRRLTASFAQGLEGVVAIDGKAVRGAYRRAAKATPLHFVNVWAAGPGLVIGQKLAPGRNEVQGALDALALLALEGSIVTADALHCRPDTARAILAAGGDYALALKANQPGLLAQALARIEDADHVESIQIAAETAHDRTETRRASVVAVDDINFPGLQAIGCVETTSRHTNGHLTSHVRYFLLSTTMSPSALIEVVRTHWQIENKLHWVLDVHFREDAARNRKDNGPQNIAFLRKIALNLLRSHPDKASIRRKIKKAGWDDQFLTSLIAHMR
MGSDKIHHHHHHMSRILNTEIIIPIIEKLVKKACYELDDNLMCSFRKAYDKEESKIGKETIKILIDNGEYAKKEQLACCHDTGTCIVIMEIGQHVCWEGKPLKDQVNQGVRQGYENGYLRKSMVADPLERINTNDNTPAILHTEIVDGDRVTITVMPKGGGSENMGTFKTLLPGDGIDGIKDFVLETVRRVGGNPCPPYIIGIGVGGTMDHCSWMAKKALLRPLGEFNAKPLYAQLEAELLEAVNNTGIGPLGMGGRITALGVHVDYYPCHITALPVAINFQCNASRHASEII
MGSDKIHHHHHHMSRLAHNKALPYKIIVDLSFHRTRLPSDVSSLIKFEQRPAIINIHGLLGSHVMFHSLNKLLSRKLDADIFSVDVRNHGISPKAIPYDYTTLTNDLIYFIETHIGLERPIYLLGFSMGGKIALLTTLYKNINIRKCISIDLPPYETPELDPMILQNYDLIMRIIRRDVKILRGSPSWQKKVLELFKSLECNKRKCGGAVALYFANGFLSVKSNNVHQAQLHYEQQQHDPYINYSMPLSSMPNLLDEVKKWPDLSNQRDFFQKGTASRKVLFMKGLQSNFINNDYSLLRYNFPCADVREFNTGHNLLLENPEDSFKCILNFFAEETLDFE
MGSDKIHHHHHHMSRLSTAPWGPVLKSVPTAAHWSLRPWCLSISLSANSEAMNKMQTEKLITPFAHALQHEHGVWGLIDQMKAVTHFLDEELERDRIRNLGIADASFLRKFGAKGTYAAQWLEAQGVVIPTRPNSWAQAADGSLALRLGNSEFLIEDVPGGTSCDRLAQACAGARGVYPVPHVEASFVISGHAVQALFSEVCSIDLTHASLGAQDVVMTQFAGVSVVLIRQDLKEEESLYRLWCDSSYGSYLWEVIAGIAHEHKGGPVGIGRYFASCP
MGSDKIHHHHHHMSRRHYNLPPLTTLTAFEAAARHLSFKDAAKELSVTPGAVSHQVKALEGELGVALFRRKHRGVDLTVPGQTLYDTLAGSLTRISQSLQSIRDQSSAGVVTVGSTTAMAAMWLSPAVIRFWRDHPEININQVVRDRAFTTSAELDLYIWYGREKDQRLDQFPLYRDRLLPVAAPERAAELAGADLDVLASQRLIHLEGDDISWTKWHDWFRQLGYSGPVASGIRVNNYSIALQAARDGAGLTLGWERLISPLITQGDLAIIGPHVLPAPERFFLVSKPDEELTPSARLLRDWIIEEASQITDEPC
MGSDKIHHHHHHMSSLQISQGTFRLSDTKTLKIDHLSVAAGESWAFVGSNGSGKSALARALAGDLPLLSGQRESHFSRVTRLSFEQLQKLVSDEWQRNNTDLLSPGEEDTGRTTAEIIQDEVKDPARCARLAEQFGISALLDRRFKYLSTGETRKTLLCQALMTDPQLLILDEPFDGLDVNSRQQLAALLADLHSAGITLVLVLNRFDEIPEFVQFAGVLADCTLSETGEKSSLLQQALVAQLAHSEKLDGITLPEPDVPPARHALADSAPRIVLNDGVVSYNDRPVINHLSWTVNPGEHWQIVGPNGAGKSTLLSLVTGDHPQGYSNDLTLFGRRRGSGETIWDIKKHIGYVSSSLHLDYRVSTNVRNVILSGYFDSIGIYQAVSDKQHKLVQQWLDILGIDKRTADAPFHSLSWGQQRLALIVRALVKHPTLLILDEPLQGLDPLNRQLVRRFVDVLIGEGATQLLFVSHHAEDAPDCITHRLAFVPSGDGYTYQLGPVA
MGSDKIHHHHHHMSSRAFSTVAVTDAFFTLVAPVAKNSARIVIIVNSVSTGKNHPQMVALQQTVQQLGYAHVQLLDVLTDDLAALNTATVIILNGGYEFLLLKNLRETHVLERLRTLALAGKPIYGISAGAILLGPDLDLYVYLYPEDNTEQLASTTAINATTIRIYPHYDVHCEVKPQLPQLITDWEHKTGVTVKRLTNNQGLLVHGSQIQMIDSDS
MGSDKIHHHHHHMSSTPSNQNIIPIIKKESIVSLFEKGIRQDGRKLTDYRPLSITLDYAKKADGSALVKLGTTMVLAGTKLEIDKPYEDTPNQGNLIVNVELLPLAYETFEPGPPDENAIELARVVDRSLRDSKALDLTKLVIEPGKSVWTVWLDVYVLDYGGNVLDACTLASVAALYNTKVYKVEQHSNGISVNKNEVVGKLPLNYPVVTISVAKVDKYLVVDPDLDEESIMDAKISFSYTPDLKIVGIQKSGKGSMSLQDIDQAENTARSTAVKLLEELKKHLGI
MGSDKIHHHHHHMSTALFHHHSTLQDQLVAIHAALRASLPDIDRIAVAIYDTKTDALHTFIHSSDGRHPLDSYATTLTGVPSLAALATSGRIRVLNDLSPLALTGAHHTQVIAKAYRSSLTVPFYKGKALSGFLFFNSQQPDYFTSRRIDTLALAAEMICSRVIDTVISVEMLTSTIQIAKDISHFRDEETGAHLDRVANYARLIAETMGKEPSALPPGRHPVLDDEFAQMIFLFAPLHDIGKVAIPDHVLLKPGPLTPEERTIMRTHSDKGLAICRRILENVDFISGTQAAMLCDIVHAHHEAWDGSGYPRGLSGADIPLAAAIVTVADVFDALTSARPYKKPWSTEDAFAYLQEKSGQLFNPACVRAFLAHRDDVLAIRARFRDEVIPEAFQTPQTPQSKADKV
MGSDKIHHHHHHMSTANIAPAIRIGVLGFGGLGQAAAKVLAGKREMKLVAVADQKGYAYAAAGLNFKDCIATYQSQGSVGYLEPVGSLGNNSIQDLIDSSQPVDGYFLALPNLPNDFIPSVARQFIQSGWRGVLVDAIKRTSAVEQLIAMKDELQAAGITYMTGCGATPGLLTAAAALAAQSYAEIHQVEITFGVGIANWEAYRATVREDIGHMPGYTVEAARAMTDAEVEALLDKTNGVLTLQNMEHADDVMLELAGIVERDRVTVGGVVDTRNPKKPLSTNVKVTGRTFEGKISTHTFTLGDETSMAANVCGPAFGYLKAGMQLHQRGIHGIFTAAEIMPQFVK
MGSDKIHHHHHHMSTDCLQELENALGRAALVRDEDRALYDVDWRGHLHGRSLAVVCPSRVEDVGETIRIARRHQISIVPQGGNTGLAGGATPDSTGRQLVLCTRRLNRIRGVDLLGNFITVDAGCILQNVQDAAQSHDRLFPLSLAAQGSCTIGGNLATNAGGNAVLRYGNMRELCVGIEAVDAQGRLIGDLKCVRKNNTGYSLRDLLIGSEGTLGIITGAALRLFPRPFAYATALVKCADIDHALQVLGILRAHCADFLSGVEWMSNGSLSNVSKQFLDTRIPPGFDESCLCLVELSGSTPPGLLDDILASALDQAITSGFAADAALASNLAERDAFWALRERLPLAEARCRSLKHDVSLPAGNMSEFVAHLEGYLSSMTLRCAWAGFGHLGDGNLHANVLIPDTMPDALCDCIDEFVYSEVLRLEGSISAEHGIGSRKNDLLHRALDVASLQAMQAVRNALDPHNLFNPGKLLFN
MGSDKIHHHHHHMSTPQFGRKVSLIIGQDSGDALDLSELRFRFDVRRGDLQTPNSARVRVYNVSPDTARRAQREFSRLVLQAGYPGNFGIIFDGTIKQVRRGRENQTDTYLDITAADGDSAYNFAVVNTTLAAGSTPSDHVAAACTAMNPYGVTQGYLPSLPSNPLPRGKVMFGMAREFMRWTARTCQTVWSIQDGKAIMVPETSYMPGEIPVITAETGMVGLPEQTQNGIAIKMLLNPSVKIGRLIQIDNASVQQYEYSLNVGQQAQNERIEQQAKLQDDGFYYVMLAEHYGDTRGNDFYTDVICLAADVTVLPDSFRDKAAVPPDNVIKRFG
MGSDKIHHHHHHMSTPSPALFFNTVNAYQRSAAIKAAVELNVFTAISQGIESSQSLAQKCQTSERGMRMLCDYLVIIGFMTKQAEGYRLTSDSAMFLDRQSKFYVGDAIEFLLSPMITNGFNDLTAAVLKGGTAISSEGTLSPEHPVWVQFAKAMSPMMANPAQLIAQLVNENKIEPLKVLDISASHGLFGIAVAQHNPNAEIFGVDWASVLEVAKENARIQGVASRYHTIAGSAFEVDYGNDYDLVLLPNFLHHFDVATCEQLLRKIKTALAVEGKVIVFDFIPNSDRITPPDAAAFSLVMLATTPNGDAYTFAEYESMFSNAGFSHSQLHSLPTTQQQVIVAYK
MGSDKIHHHHHHMSTSYEISSLPWLSASHELLLKQVRLGSLSHGHLLDVHTQLGGDVLAQSMAKLILCQALTPVGACGQCKACLLVSAGTHPDLHSVAPDGNQIKVDQIRSLCSSLTSTAQQGGKRVAIIYQSERMNTASANALLKTLEEPGKETFLLLQTDRTAALLATVKSRCQTLSITPPSNAEVNAWLKGQQLLPVVPDGAKPHDVTWCLSVVGGPIQLAQSLQSDKYQTLLNYRKEWAMSLSSGHLCGSLLALKDNQLIDALQVLYLYLRHFVLKSNDINAFTKAQVITLAAKIMEMRHKLTTMAAVNTQALCMDYVLAFRQLTHTHR
MGSDKIHHHHHHMSTVSAQEAVSLREAAERRSQFARVPARSVSAPPRKKWFRSKQQLSGAADGMDGSSRAGSQEIVCDEFTKKLVAAITTWHDIHSSLLQLSIERSSNDSNEEHENVSVSSESSWSSASDSESDEDSATGRDSTNNHLSASAARFSISNPDLTNCQIKQMFPEMADHWR
MGSDKIHHHHHHMSVLKATNSIEQRLQIQRLQAPTRVVTSTAGGDVVRGLTQTPKTLPPCYFYDDRGSELFERICELPEYYVTRTETAILQRFAGEIARITGACELVELGSGNSTKTRILLDAYQQLDYPLRYLPIDVCAGILESSAKQLLQDYPSLEVYALAGTYELALAQLTPKKLSSRMICFIGSTLGNLNLQECDVFLSQIRATLNVGEYFLLGVDLQKPKEILEPAYDDSQGVTAEFNLNMLEHLNRSFEGNFDTTQFKHWAFYNESEQRIEMHLKSERSQTVQLKSLNLTVNLAQGETILTEISRKFNLESIQQQLAAKGLIPVQTWTDVNQWFGLLLCQVQG
MGSDKIHHHHHHMSYLTSSRCKLFYEDTAEQNPSLKDKPAILFVNGWAISSRYWRPTIDLLRQDFRCVTYDQSGTGKTSIDGCQPDLTIGGFADEAGALIEHLGLDKSRNLHIVGHSMGGMVATELCLRYRDALLSATILACGIFEETPFTSLGLMFLGGLIDVSMNFRNMFRVEPLRTLFIKRAATGHISKEYSDIIIEDFTTSDKAATNAVGHFSIDPEALRTYTRSVIEIASPVLCCVGMADHTIPPEGTITLFEKRKASATSPTRLVQFMHLGHLPMLEDTPCFVEQLKKHFDFAEHFYKKTQPATPLADRVQIQ
MGSDKIHHHHHHMSYQIEIGSIRCFVVAAEELHFRRAAIRLNMSQPTLSQQIKRLEELMGVQLFIRSTRRVDLTRAGASFLDHARDILLKIDEAILNAKLEAGGLSPGGEELIIGAISPATSQLLPLILSRFRQRFPRTRLAIKEVDSIELLRGIERGDFHVGLMRPPSNSNLVRFRHLLSERFVAVMPRQSALARKPALRLSDFAGHGVFALKRFELSCFETVYEQLSGAGLLIENDIAVSDTNTALALVTAGAGITFLPEWVSAMAPDGVVTRVVDDMSVEISMAVGWNPDCPVPGILPFVEFATLAAQNLISARK
